Test results reported in the domain aggregation screens of Martell et al. (2025).

Assay: soluble fraction after stress (log2 fold change); higher = more stays soluble; pooled small domains, quantitative proteomics
Details: stress: pH 4
Summary of the method: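 High-throughput quantitative proteomics was run on pooled custom libraries of small protein domains following pH 4 stress. Fold changes are on a log2 scale; higher values mean more of a domain remained soluble. The fold change in soluble amount is taken as a measure of aggregation propensity.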

Sequence: HMEMKVIPFNQMTRDQFDQLDRFLGRLAAAQAMGSLRLTKAQQNYFLNQVKQLDLYRKRILN
- soluble fraction (log2): 0.0144

Sequence: HMEMTSREIIKRLEEDGWYHVKTTGDHYQMKHPTKPGKVTIVHPAKDLSIGTLRSIEKQSGVRL
- soluble fraction (log2): ≥ 0.43

Sequence: HMEMVSMPGLTGSTLEFATKTLTENELKYEVVYIVDASAESGLIIRTYPTEGEMVSKKTSTIYLYIKE
- soluble fraction (log2): -0.481

Sequence: HMENDGQFLRAEREKYGLTLTDIYEHTHIPIKKLKAYEMWEEEMPPRTRALLELYFDQVAFEYDS
- soluble fraction (log2): -0.556

Sequence: HMENDPYEILGIARSASDDEIKAKYRALTRENHPDILMAKGVPQEFIDLANEKMAVINAAYDKIEKER
- soluble fraction (log2): 0.12

Sequence: HMENEDMTGDIRVIDYIRNVAEYIQTTKGQASASQMLDRFLFPPELQYTPLDKLSGGEQRRLYLLKVLMEA
- soluble fraction (log2): -0.575

Sequence: HMENEFEAYSDGSSIQLNDPSKATYVVFDRQGRLLHLFQNHSLSSLSIERKNQILIITRETADGVSVKKIV
- soluble fraction (log2): -0.167

Sequence: HMENEIPVPELVGMSEADAAAKLASLGLERDTQREATADEESVGKVLRQEPTPGEYVDEGHKVTIWVGE
- soluble fraction (log2): 0.22

Sequence: HMENFSTLFSRLKEERGLSNKQISSFTGAPIKEVKKWESGMGIPTEKRIVAALEGILGSEISKAI
- soluble fraction (log2): 0.353

Sequence: HMENHILIIDDDLMLLKTAEEILSDQYNVSVAKSGIQALNLLNKNIIPDLILLDIDMPQMDGYETL
- soluble fraction (log2): -0.554

Sequence: HMENIIFDIGFHKGEDTLFYLLKGYRVIAVDADPDLINEWQNIFKKYIENGKLLLLNYVISDT
- soluble fraction (log2): -1.18

Sequence: HMENISVESKMKLLLKSLKTRDFISLPELVLKGESKLAISVILVAALELNRKGYIEVVQAEQFGEIYFKNT
- soluble fraction (log2): 0.0399

Sequence: HMENKVLVITEEEKGKRLDVYLAAALEVSRSYAQQLIQGEDVVVNDKQVKANYRLSEGDVVQVQLD
- soluble fraction (log2): -0.218

Sequence: HMENLIEELTAKNKEYIHSVTKQLILVGKSDEEVKEILNDILPQIIEGQKSGIIARKLLGAPTEFVSQYQP
- soluble fraction (log2): -0.317

Sequence: HMENLQLQQLVKGLPEKMQEIVILRFSQELTMREIADIVNLPMRTVQSQLRLALKILKKEMG
- soluble fraction (log2): 0.145

Sequence: HMENLSFNINSEEEGQRIDKYLSVMIEGKSRSFVQGLIEEKKVKANSKVIKSNYKLKKGDFIEVEVPEPV
- soluble fraction (log2): 0.36

Sequence: HMENLSGNDIKYLRKKYNLTQKELADALGLQKFGDRTIRRWEAEETHPSKLEQSSIQSFFNSLK
- soluble fraction (log2): 0.111

Sequence: HMENLTLVIGNKLKNIRNSRNLSLDDVAELTGVSKAMLGQIERGKSNPTVSTLWKISTGLRVSFSSFIDE
- soluble fraction (log2): -0.249

Sequence: HMENLVPVVVATTNIEPRTQITDAMVKVEQIPALGRNESMLEDPALVVGGYATGKIYAGQSFIQPMVSK
- soluble fraction (log2): 0.192

Sequence: HMENNIILNYVKDNLNITEKDAKDLIELLGSDYYHIKNETNKIAAFLDGQPYSFEKIKNLISIDKEY
- soluble fraction (log2): -0.644

Sequence: HMENPLETYYSQWVSAIKREHPEASFVKDTDGKYYVEGLTKNRLAVIYENPHLVRLVNATTNLHVE
- soluble fraction (log2): 0.14

Sequence: HMENPVPVIITDQNFQPLLWKNVGVPTDTIFHELSPENQKKLENLMKTMVQMPLTDDGRISGYAYYSK
- soluble fraction (log2): 0.149

Sequence: HMENQFNDWSLTPSEKEVALFMLKGLSTQEIAAARNTKEKTVRQQASAVYAKSQLDGRYALAAWFFEDI
- soluble fraction (log2): -1.04

Sequence: HMENQMIIYIDENDENKRLDSYLSEITPDYSRSKIQNFIKNGNVTVNDSNKKPSYLLKENDKISFELPQQ
- soluble fraction (log2): -0.158

Sequence: HMENSLLSESLAKIYIKTHRYERAYEILSRLSLAVPEKNAYFADQLRFLRKVMLAESFRKQHS
- soluble fraction (log2): 0.22

Sequence: HMENTSPMTPEQSKALMAYLTKRHGDSREAYLSELSQFFGRPLSSSRELTKADVSEFLNAIN
- soluble fraction (log2): -0.0703

Sequence: HMENVVESIYNKMVESITNGQWAAGSKIPTENELAKTYQVSRSSVRQAISRLKALGLLESRQGSGTVIKK
- soluble fraction (log2): 0.178

Sequence: HMENWMPNLVNQDKRLAINTLRELGFTEEAGNLVIREETSEDVTKDYVISTDPVAETDLADVEKVTLVVSS
- soluble fraction (log2): -0.219

Sequence: HMENYIEQLTAKNSEYIHVVTRELVKIGKSDEEIKAILSDILPQIVAAQDQRVLAKDILGTPSEFTAKYAP
- soluble fraction (log2): 0.0161

Sequence: HMEPDDLTVIKGIGPVAAKDLNEQGIITFAQLAKLSDKDVAKIDEHMPFSADQIKDWREQAKELAK
- soluble fraction (log2): 0.0725

Sequence: HMEPDEIVLDHRKRIENSDAIVLIAPIWNFRMPAILEGWIDKVLAPPWAFKFKKLFGNYGYPVGNLKG
- soluble fraction (log2): -0.121

Sequence: HMEPDTVVVPNFVGKVYASEIEGNEAYSDFTFVIKEGNDPEQDIGVVLKQTPNEGLEVKKGKEITLTINQ
- soluble fraction (log2): -0.169

Sequence: HMEPEAKIDFILKAAQKRLGLYGYEKTTMQEIAADINMSKAALYYYFPDKESLFKAVVENEQEEYFH
- soluble fraction (log2): -1.24

Sequence: HMEPEDVIAMERYLASGAIKGIGVTLAGRIIKKFQKETFHIIEEEPERLSEVKGISEKLAREIYQQFTQK
- soluble fraction (log2): -0.187

Sequence: HMEPERRHLEVPAEAEGERIDRFLASQLENLSRSRIQALIKAGYVRNRRGTIEDPGLRVKPGDAFVVDLPP
- soluble fraction (log2): 0.255

Sequence: HMEPEVEITYFKPDERKAGGAYVTVTGAVIKVDDFERLITMQDGTKIPMDDILSIDGELFLS
- soluble fraction (log2): -1.08

Sequence: HMEPGEVQVDGLRFIAQPQERNDFEVALEQFRAGNFAAARKSFAAFINTYKQSGYLPSARFW
- soluble fraction (log2): -0.152

Sequence: HMEPLKLGDATGDGKINLQDVLEMQKHMAGILVLKGKFFTAADVNGNGKIELVDVLSVQKYLAGVTAEV
- soluble fraction (log2): -0.0932

Sequence: HMEPLVSKVFQVSYQKTADLVALIKSEDSKLLSARGTLISDERTSQIFVQDTPTRLERISMIVNGL
- soluble fraction (log2): -0.895

Sequence: HMEPMNMYSSIKKVIGVVSGKGGVGKSLVTASLARMMRAKGYHVGIMDADITGPSIPKMYGLHEMA
- soluble fraction (log2): 0.0444

Sequence: HMEPVDYEALRKELMQKVMGLFTQSRDVGIQILSSFGAKKLSDVPDDKLVAFAASVDKALAG
- soluble fraction (log2): 0.138

Sequence: HMEPVQFIQFKIPDGHPWSGQLLREVRLPPGTLVVLLKHDGKNIIPNGETPLLAGDSVILSAASPT
- soluble fraction (log2): -0.459

Sequence: HMEQAAQPQTGFDPRRLKAGDAVHLLALDQRGVLLEDPKPGAESAPVSVGVAGVRVVVPLREMEALPAG
- soluble fraction (log2): -0.0942

Sequence: HMEQEVLDLLFDAIRSLPEKYRRLFDMSFEQGLKNAEIAALLHVSESAVKKQKASMIQQLRDDLLRKTGKD
- soluble fraction (log2): -0.564

Sequence: HMEQFDFTILRELRKRAGLSIGEVSAESGVSAAVISKLERNRTRAELDTLYRLARVFGITAAELLNLAEA
- soluble fraction (log2): -1.76

Sequence: HMEQIETIFLSAAPYARTHIIHLLETSELFRDKYLTIVETSNGLLIYTEDKNRLLGILNSLT
- soluble fraction (log2): -1.24

Sequence: HMEQIFTELIMDGRVLGENLHRMGVDETWLLRQLRQQGYHSAREVFLAVADANKQVAVYPVS
- soluble fraction (log2): -0.776

Sequence: HMEQINVTIQTEKGRIDKVLSEHLPNHSRSQIQQWLKEKHVTVNGETVRANYKVTAGDEIVVTIPEPEV
- soluble fraction (log2): -0.18

Sequence: HMEQISDEDTLRKMVNEVLDNNQTQLEQYKSGKTNLIGFFVGQTLKKSAGKANPSIVNKLVNEEIYI
- soluble fraction (log2): 0.0623

Sequence: HMEQISIETRIEQLLARLSETEASGFEELFADTSSRADLITTFLALLEMIRLKLVRVFQDGSFGPIRIYKR
- soluble fraction (log2): -1.5
